In article PMC12708450, “Targeting tumor-infiltrating regulatory T cells: combining CD47 and PD-L1 inhibition via a novel aptamer-siRNA chimera”:

Target: PD-L1 (recombinant human) (Homo sapiens, UniProt Q9NZQ7 19-238)
Experiment: ELONA; 1:1 hyperbolic fit; ELONA: PD-L1 coated in PBS at 4 C overnight; blocked with PBS, 0.1% Tween 20, 1% BSA; wash PBS, 1 mM MgCl2, 0.1% Tween 20, 0.1% BSA; oligo heated 95 C 10 min then on ice 10 min; binding 45 min at room temperature; pH not stated
Conditions: protein: recombinant; label: biotin (ELONA)

Sequence of PD-L1 (recombinant human) (Q9NZQ7 19-238): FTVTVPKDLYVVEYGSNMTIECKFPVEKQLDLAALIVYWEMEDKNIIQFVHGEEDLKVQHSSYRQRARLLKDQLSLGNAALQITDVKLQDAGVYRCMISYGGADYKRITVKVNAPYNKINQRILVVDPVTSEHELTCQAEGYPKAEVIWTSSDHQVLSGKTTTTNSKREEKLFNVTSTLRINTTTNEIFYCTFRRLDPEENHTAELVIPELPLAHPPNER

B1: PD-L1 aptamer (structured_DNA)
DNA: ACCGACCGTGCTGGACTCATCTCGCTTTTTTCACGGTCCACACTACTATGAGCGAGCCTGGCG
- Kd: 108 nM
